According to the Human Domainome abundance scans (Beltran et al. 2025):
± gives the uncertainty stated by the source.

B1: SH3 and PX domain-containing protein 2B, residues 155 to 209; numbered along this chain, A1X283 (parent)
chain: EQYVVVANYQKQESSEISLSVGQVVDIIEKNESGWWFVSTAEEQGWVPATCLEGQ

Variants of: B1
Assay: abundance fitness (aPCA) (normalised: wild type 0, dead -1); higher = more abundant; growth selection in yeast, the domain comes from the species named
Conditions: Homo sapiens

Abundance fitness: each site, then its substitutions
A7: Q -0.106 ± 0.11; H -0.394 ± 0.2; M -0.15 ± 0.12; E -0.088 ± 0.1; I -0.32 ± 0.12; L -0.101 ± 0.081; G -0.098 ± 0.058; D -0.046 ± 0.14; W -0.286 ± 0.11; S -0.052 ± 0.083; Y 0.025 ± 0.12; R -0.066 ± 0.075; N -0.09 ± 0.15; F -0.076 ± 0.17; C -0.25 ± 0.093; K -0.024 ± 0.12
V21: M -0.066 ± 0.094; Q -0.036 ± 0.11; T -0.061 ± 0.14; E 0.096 ± 0.1; P -0.315 ± 0.11; R -0.005 ± 0.071; I -0.166 ± 0.12; K 0.092 ± 0.2; Y -0.444 ± 0.12; L -0.188 ± 0.086; W -0.566 ± 0.13; A -0.043 ± 0.097; S -0.238 ± 0.1; C -0.025 ± 0.1; D -0.593 ± 0.12; G -0.453 ± 0.082; N -0.342 ± 0.12; F -0.286 ± 0.099
Q2: S -0.058 ± 0.11; V 0.012 ± 0.11; W -0.415 ± 0.1; T -0.148 ± 0.12; R -0.167 ± 0.12; Y -0.29 ± 0.39
V5: C -0.108 ± 0.12; F -0.875 ± 0.2; H -1.08 ± 0.31; E -0.939 ± 0.23; Q -0.994 ± 0.24; K -0.552 ± 0.35; N -0.946 ± 0.27; W -0.938 ± 0.16; D -0.999 ± 0.2; I -0.379 ± 0.14; P -0.892 ± 0.15; M -0.418 ± 0.15; T -0.309 ± 0.34; R -1.04 ± 0.12; G -0.37 ± 0.064; L -0.919 ± 0.12; S -0.099 ± 0.076
Y9: A -0.774 ± 0.12; R -0.21 ± 0.071; V -0.249 ± 0.074; M -0.508 ± 0.13; F 0.011 ± 0.12; Q -0.744 ± 0.15; C -0.648 ± 0.14; G -0.81 ± 0.083; T -0.312 ± 0.11; N -0.616 ± 0.22; I -0.809 ± 0.37; E -0.597 ± 0.11; D -0.491 ± 0.1; S -0.484 ± 0.091; W 0.094 ± 0.12; K -0.619 ± 0.12
S20: Q -0.126 ± 0.17; K -0.075 ± 0.11; V -0.077 ± 0.079; P -0.536 ± 0.13; G -0.239 ± 0.079; A -0.13 ± 0.098; H -0.01 ± 0.13; W -0.165 ± 0.12; Y -0.143 ± 0.11; E 0.09 ± 0.21; T -0.055 ± 0.11; L 0.015 ± 0.077; C -0.209 ± 0.11; R -0.082 ± 0.074; D -0.317 ± 0.16; F -0.085 ± 0.1
I17: R -0.332 ± 0.061; P -0.769 ± 0.17; Q -0.672 ± 0.19; T -0.114 ± 0.12; H -0.715 ± 0.24; D -0.889 ± 0.37; M -0.053 ± 0.12; L -0.055 ± 0.084; N -0.733 ± 0.47; V -0.048 ± 0.086; A -0.201 ± 0.13; C 0.014 ± 0.1; K -0.692 ± 0.14; E -0.99 ± 0.15; F -0.597 ± 0.16; S -0.576 ± 0.18; G -0.863 ± 0.086
V6: P -0.529 ± 0.16; G -0.151 ± 0.061; A 0.049 ± 0.087; W -0.326 ± 0.1; L -0.199 ± 0.11; K 0.056 ± 0.15; C -0.151 ± 0.15; F -0.131 ± 0.21; Q -0.199 ± 0.14; E -0.366 ± 0.11; I 0.054 ± 0.14; N -0.214 ± 0.25; S -0.087 ± 0.11; Y -0.262 ± 0.17
E13: W -0.467 ± 0.17; D -0.111 ± 0.14; N -0.046 ± 0.16; C -0.19 ± 0.1; G -0.074 ± 0.065; R -0.182 ± 0.081; I -0.037 ± 0.12; M -0.025 ± 0.12; P -0.598 ± 0.12; V -0.065 ± 0.071; L -0.178 ± 0.071; Y -0.248 ± 0.11; K -0.015 ± 0.15; H -0.154 ± 0.11; A -0.359 ± 0.1; F -0.229 ± 0.13; T -0.104 ± 0.1; S -0.158 ± 0.078
E16: Q -0.008 ± 0.15; C -0.505 ± 0.16; I -0.692 ± 0.19; P -0.667 ± 0.17; K -0.16 ± 0.16; W -0.55 ± 0.12; F -0.868 ± 0.17; G 0.057 ± 0.061; D -0.211 ± 0.15; V -0.92 ± 0.093; A -0.312 ± 0.079; T -0.178 ± 0.1; L -0.805 ± 0.12; S -0.177 ± 0.091; Y -0.853 ± 0.3; N -0.2 ± 0.14; M -0.449 ± 0.093
V4: H -0.308 ± 0.15; E 0.003 ± 0.099; C -0.01 ± 0.13; W -0.271 ± 0.12; T 0.193 ± 0.18; G -0.265 ± 0.076; D -0.148 ± 0.1; A -0.047 ± 0.082; Q -0.018 ± 0.15; I 0.082 ± 0.13; S 0.083 ± 0.088; L 0.075 ± 0.065; M -0.463 ± 0.26; F -0.061 ± 0.1; N -0.139 ± 0.14; R 0.077 ± 0.096; Y 0.046 ± 0.21
K11: L -0.433 ± 0.11; P -0.034 ± 0.1; Q -0.132 ± 0.13; M -0.115 ± 0.18; R 0.069 ± 0.065; N -0.33 ± 0.16; S -0.072 ± 0.087; A -0.106 ± 0.081; E -0.183 ± 0.11; F -0.689 ± 0.19; H 0.064 ± 0.14; T -0.357 ± 0.14; G -0.015 ± 0.054; W -0.496 ± 0.12; Y -0.465 ± 0.14
N8: D 0.04 ± 0.11; W -0.524 ± 0.088; A 0.093 ± 0.081; V -0.296 ± 0.075; I -0.501 ± 0.18; H -0.102 ± 0.13; K -0.083 ± 0.17; F -0.26 ± 0.12; Q -0.105 ± 0.14; L -0.447 ± 0.075; E -0.068 ± 0.092; T 0.018 ± 0.097; Y -0.448 ± 0.18; P -0.069 ± 0.15; G 0.012 ± 0.054; M -0.305 ± 0.11
L19: G -0.838 ± 0.093; K -0.957 ± 0.14; C -0.035 ± 0.13; I -0.149 ± 0.17; T -0.604 ± 0.089; E -0.768 ± 0.15; M -0.545 ± 0.15; W -0.899 ± 0.11; Y -0.665 ± 0.45; F -0.441 ± 0.18; A -0.482 ± 0.1; Q -0.865 ± 0.16; D -0.894 ± 0.28; N -0.966 ± 0.16; P -0.831 ± 0.11
S14: Y -0.073 ± 0.13; T -0.036 ± 0.087; G -0.071 ± 0.063; H -0.125 ± 0.14; K 0.026 ± 0.11; A -0.13 ± 0.11; M -0.05 ± 0.13; N 0.083 ± 0.45; V 0.014 ± 0.086; I 0.014 ± 0.2; C -0.018 ± 0.1; W -0.171 ± 0.1; Q -0.347 ± 0.2; R -0.073 ± 0.068; L 0.027 ± 0.1; F -0.458 ± 0.15; P -0.005 ± 0.1
S18: F -0.157 ± 0.42; I -0.528 ± 0.24; R -0.646 ± 0.31
S15: I -0.201 ± 0.14; T -0.103 ± 0.12; N -0.061 ± 0.23; P -0.121 ± 0.13; F -0.244 ± 0.093; V -0.119 ± 0.095; C -0.063 ± 0.1; R 0.04 ± 0.073; Q 0.103 ± 0.12; E -0.172 ± 0.11; H 0.055 ± 0.23; D 0.02 ± 0.15; A -0.01 ± 0.085; W -0.049 ± 0.1; L -0.27 ± 0.079; G -0.073 ± 0.073; M -0.18 ± 0.12; Y -0.092 ± 0.092
Q23: F -0.741 ± 0.16; L -0.288 ± 0.085; N -0.037 ± 0.18; D -0.034 ± 0.087; R -0.405 ± 0.12; M -0.039 ± 0.12; P -0.978 ± 0.2; G -0.263 ± 0.068; I -0.308 ± 0.15; H -0.136 ± 0.13; E 0.001 ± 0.09
Q12: E -0.195 ± 0.14; C -0.228 ± 0.1; F 0.001 ± 0.16; K 0.013 ± 0.094; H -0.114 ± 0.19; Y -0.313 ± 0.3; V 0.02 ± 0.08; I -0.19 ± 0.14; N -0.183 ± 0.14; M -0.182 ± 0.14; P -0.276 ± 0.087; S -0.038 ± 0.073; G -0.14 ± 0.074; D -0.241 ± 0.15; R -0.066 ± 0.068
Y3: L -0.237 ± 0.077; T -0.06 ± 0.11; R -0.127 ± 0.067; G 0.003 ± 0.074; W -0.324 ± 0.12; K -0.035 ± 0.15; P -0.585 ± 0.18; F -0.053 ± 0.13; S 0.039 ± 0.093; Q -0.17 ± 0.13; H -0.537 ± 0.17; E -0.114 ± 0.15; C -0.349 ± 0.14; I -0.175 ± 0.13; N -0.268 ± 0.13; V -0.073 ± 0.081; D -0.162 ± 0.2; A 0.106 ± 0.095
Q10: K -0.192 ± 0.15; D -0.266 ± 0.18; F -0.257 ± 0.27; L -0.044 ± 0.088; G -0.322 ± 0.077; M -0.476 ± 0.14; R -0.071 ± 0.096; Y -0.333 ± 0.23; E 0.125 ± 0.11; I -0.128 ± 0.17; H -0.145 ± 0.21; W -0.334 ± 0.14; C -0.135 ± 0.17; A 0.003 ± 0.087; T -0.058 ± 0.13
G22: M -0.617 ± 0.11; L -0.921 ± 0.11; I -1.05 ± 0.21; W -0.834 ± 0.11; F -0.91 ± 0.26; N -0.33 ± 0.16; K -0.789 ± 0.14; S -0.503 ± 0.081; P -0.83 ± 0.15; E -0.673 ± 0.11; R -0.549 ± 0.078; V -0.945 ± 0.097; T -0.588 ± 0.12; Y -0.498 ± 0.19; C -0.638 ± 0.097; Q -0.512 ± 0.16; H -0.581 ± 0.19; A -0.5 ± 0.078; D -0.246 ± 0.14
